Test results: patent publication US20240016892A1

Experiments:
[1] = target: recombinant human HVEM (human) (UniProt Q92956); assay: BLI (Octet-Red96), tagged rhHVEM immobilised on biosensor
[2] = target: recombinant human LTβR (human) (UniProt P36941); assay: BLI (Octet-Red96), tagged rhLTβR immobilised on biosensor
human 4-1BB-His (human) [3] = target: human 4-1BB-His (human) (UniProt Q07011); assay: MSD 'Human 41BB-Binding Assay': coat h41BB-His (R&D), detect anti-41BBL (R&D), anti-Goat Sulfo; positive control
mouse CD47-Fc (mouse) = mouse CD47-Fc (mouse) (UniProt Q61735); assay: MSD dual-binding sandwich: coat mCD47-Fc (Acro); detect m41BB-His (Acro); anti-His Biotin + Streptavidin Sulfo; labelled Negative Control
[4] = target: recombinant human PVR (human) (UniProt P15151); assay: BLI (Octet-Red96), tagged rhPVR immobilised on biosensor
[5] = target: recombinant human HVEM-Fc (human) (UniProt Q92956); assay: MSD sandwich: capture HVEM-Fc; detection PVR-Biotin
[6] = target: recombinant human LTβR-Fc (human) (UniProt P36941); assay: MSD sandwich: capture LTβR-Fc; detection PVR-Biotin
human 4-1BB-His (human) [7] = target: human 4-1BB-His (human) (UniProt Q07011); assay: MSD 'Human 41BB-Binding Assay': coat h41BB-His (R&D), detect anti-41BBL (R&D), anti-Goat Sulfo; negative control, fit value for a curve that stays near the baseline
mouse CD47-His (mouse) = mouse CD47-His (mouse) (UniProt Q61735); assay: MSD: coat mCD47-His (Acro); detection anti-mouse Sulfo (MSD); labelled Positive Control
mouse 4-1BB-His (mouse) = mouse 4-1BB-His (mouse) (UniProt P20334); assay: MSD: coat m41BB-His (Acro); detection anti-mouse Sulfo (MSD); labelled Negative Control, flat curve
Sequence of mouse 4-1BB-His (mouse) (P20334 24-187 limits assumed): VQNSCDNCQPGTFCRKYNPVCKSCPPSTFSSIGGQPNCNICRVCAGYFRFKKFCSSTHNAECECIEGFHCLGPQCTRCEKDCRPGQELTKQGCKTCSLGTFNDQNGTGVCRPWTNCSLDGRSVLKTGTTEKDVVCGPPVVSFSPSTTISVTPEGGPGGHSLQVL

Sequence of recombinant human PVR (human) (P15151 21-343 limits assumed): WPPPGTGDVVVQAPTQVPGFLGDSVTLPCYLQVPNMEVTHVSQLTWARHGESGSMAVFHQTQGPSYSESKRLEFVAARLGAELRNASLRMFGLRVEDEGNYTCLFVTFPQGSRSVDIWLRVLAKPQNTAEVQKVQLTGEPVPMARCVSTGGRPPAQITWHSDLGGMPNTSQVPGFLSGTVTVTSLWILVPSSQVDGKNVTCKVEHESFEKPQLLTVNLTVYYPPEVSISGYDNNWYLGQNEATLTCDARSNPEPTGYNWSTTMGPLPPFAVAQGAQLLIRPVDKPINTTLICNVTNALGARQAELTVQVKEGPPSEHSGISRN
Sequence of recombinant human HVEM (human) (Q92956 39-202 limits assumed): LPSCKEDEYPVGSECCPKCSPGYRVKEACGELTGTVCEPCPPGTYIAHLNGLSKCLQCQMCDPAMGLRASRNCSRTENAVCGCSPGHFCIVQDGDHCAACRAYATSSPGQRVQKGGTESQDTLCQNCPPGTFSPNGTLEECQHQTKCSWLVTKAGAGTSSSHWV
Sequence of recombinant human LTβR (human) (P36941 31-227 limits assumed): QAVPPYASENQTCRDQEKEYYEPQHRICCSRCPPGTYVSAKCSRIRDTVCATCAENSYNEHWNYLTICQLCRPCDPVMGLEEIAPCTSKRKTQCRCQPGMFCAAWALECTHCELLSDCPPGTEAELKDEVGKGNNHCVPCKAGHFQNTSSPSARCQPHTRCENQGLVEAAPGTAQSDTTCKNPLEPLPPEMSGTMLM
Sequence of human 4-1BB-His (human) (Q07011 24-186 limits assumed): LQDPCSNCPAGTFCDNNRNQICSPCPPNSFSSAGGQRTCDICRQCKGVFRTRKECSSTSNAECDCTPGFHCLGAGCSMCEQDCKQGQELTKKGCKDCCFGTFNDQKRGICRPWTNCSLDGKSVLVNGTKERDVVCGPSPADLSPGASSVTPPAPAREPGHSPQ
Sequence of mouse CD47-Fc (mouse) (Q61735 19-140 limits assumed): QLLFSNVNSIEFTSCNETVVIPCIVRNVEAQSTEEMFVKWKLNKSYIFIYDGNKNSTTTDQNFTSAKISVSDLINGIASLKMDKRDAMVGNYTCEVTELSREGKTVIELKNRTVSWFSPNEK
Sequence of mouse CD47-His (mouse) (Q61735 19-140 limits assumed): as above
Sequence of recombinant human HVEM-Fc (human) (Q92956 39-202 limits assumed): as the sequence (Q92956 39-202 limits assumed) above
Sequence of recombinant human LTβR-Fc (human) (P36941 31-227 limits assumed): as the sequence (P36941 31-227 limits assumed) above

With “Fc-LIGHT single-sided fusion protein control (Fc fusion)” the Kd [1] was 2.12 nM, the koff [1] was 0.000876 s⁻¹ and the kon [1] was 410000 M⁻¹ s⁻¹. The Kd [2] was 28.4 nM, the koff [2] was 0.00754 s⁻¹ and the kon [2] was 266000 M⁻¹ s⁻¹.
For “PD-1-Fc-4-1BBL chimeric protein (as used in Example 14) (Fc fusion)”, the EC50 (human 4-1BB-His (human) [3]) was 0.63 nM.
Work on “PD-1-Fc-4-1BBL chimeric protein (as used in Example 15) (Fc fusion)” yielded an EC50 (mouse CD47-Fc (mouse)) of 45000 nM.
“TIGIT-Fc single-sided fusion protein control (Fc fusion)” was tested, and the Kd [4] was 5.24 nM, the koff [4] was 0.00154 s⁻¹ and the kon [4] was 296000 M⁻¹ s⁻¹.
“TIGIT-Fc(IgG1)-LIGHT chimeric protein (Fc fusion)” was tested, and the EC50 (read off the curve) [5] was 5 nM and the EC50 (read off the curve) [6] was 3 nM.
“hSIRPα-Fc-CD40L chimeric protein (Fc fusion)” was tested, and the EC50 (human 4-1BB-His (human) [7]) was 143 nM.
Work on “mSIRPα-Fc-CD40L chimeric protein (Fc fusion)” yielded an EC50 (mouse CD47-His (mouse)) of 0.369 nM and an EC50 (mouse 4-1BB-His (mouse)) of 5350 nM.
